Laboratory results taken from publication PMC12170906.

Molecular target: RNAP-SigA holoenzyme (Mycobacterium tuberculosis, UniProt P9WGZ1;P9WGY9;P9WGY7;P9WGI1 1-347;1-1178;1-1316;1-528)
Test: EMSA; 100-200 nM RNAP, heparin
Conditions: protein: recombinant; chain copies: 2;1;1;1; blunt

Sequence of RNAP-SigA holoenzyme (P9WGZ1 whole entry, chain 1 of 4): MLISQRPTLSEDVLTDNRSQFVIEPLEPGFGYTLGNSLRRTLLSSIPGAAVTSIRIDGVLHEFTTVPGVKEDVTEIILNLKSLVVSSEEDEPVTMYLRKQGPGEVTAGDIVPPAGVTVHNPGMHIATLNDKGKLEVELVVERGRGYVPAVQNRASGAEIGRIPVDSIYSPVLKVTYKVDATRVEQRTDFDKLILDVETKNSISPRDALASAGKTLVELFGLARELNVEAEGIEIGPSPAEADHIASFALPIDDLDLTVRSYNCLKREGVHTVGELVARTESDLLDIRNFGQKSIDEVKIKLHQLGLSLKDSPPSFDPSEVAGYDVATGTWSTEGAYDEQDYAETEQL
Sequence of RNAP-SigA holoenzyme (P9WGY9 whole entry, chain 2 of 4): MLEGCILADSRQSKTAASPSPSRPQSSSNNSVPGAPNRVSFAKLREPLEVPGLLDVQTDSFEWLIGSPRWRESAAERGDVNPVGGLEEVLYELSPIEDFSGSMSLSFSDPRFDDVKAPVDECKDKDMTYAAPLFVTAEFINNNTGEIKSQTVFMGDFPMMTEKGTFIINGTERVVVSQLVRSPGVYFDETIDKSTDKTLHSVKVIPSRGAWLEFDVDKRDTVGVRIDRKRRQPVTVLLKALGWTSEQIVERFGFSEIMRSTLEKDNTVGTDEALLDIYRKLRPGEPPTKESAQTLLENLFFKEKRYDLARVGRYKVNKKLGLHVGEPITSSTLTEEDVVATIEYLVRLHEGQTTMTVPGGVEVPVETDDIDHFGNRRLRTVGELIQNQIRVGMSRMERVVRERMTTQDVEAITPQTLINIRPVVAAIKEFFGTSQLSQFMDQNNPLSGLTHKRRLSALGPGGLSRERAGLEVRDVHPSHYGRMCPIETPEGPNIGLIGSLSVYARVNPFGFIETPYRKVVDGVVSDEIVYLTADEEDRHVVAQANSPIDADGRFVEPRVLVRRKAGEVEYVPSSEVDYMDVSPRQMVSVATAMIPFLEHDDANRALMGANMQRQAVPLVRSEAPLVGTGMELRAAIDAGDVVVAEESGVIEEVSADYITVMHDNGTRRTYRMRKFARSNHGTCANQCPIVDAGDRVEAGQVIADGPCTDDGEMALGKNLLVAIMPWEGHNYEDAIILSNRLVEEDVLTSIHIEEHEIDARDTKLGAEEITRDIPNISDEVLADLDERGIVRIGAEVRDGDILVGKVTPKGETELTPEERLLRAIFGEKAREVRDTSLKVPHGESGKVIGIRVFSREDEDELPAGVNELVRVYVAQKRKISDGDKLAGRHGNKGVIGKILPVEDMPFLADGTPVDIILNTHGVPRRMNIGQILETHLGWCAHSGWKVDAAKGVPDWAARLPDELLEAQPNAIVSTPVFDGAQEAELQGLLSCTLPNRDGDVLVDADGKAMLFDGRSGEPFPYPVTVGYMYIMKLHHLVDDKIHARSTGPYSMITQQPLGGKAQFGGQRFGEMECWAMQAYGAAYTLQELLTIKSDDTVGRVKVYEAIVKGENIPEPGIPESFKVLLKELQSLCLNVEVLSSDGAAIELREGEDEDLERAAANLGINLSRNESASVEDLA
Sequence of RNAP-SigA holoenzyme (P9WGY7 whole entry, chain 3 of 4): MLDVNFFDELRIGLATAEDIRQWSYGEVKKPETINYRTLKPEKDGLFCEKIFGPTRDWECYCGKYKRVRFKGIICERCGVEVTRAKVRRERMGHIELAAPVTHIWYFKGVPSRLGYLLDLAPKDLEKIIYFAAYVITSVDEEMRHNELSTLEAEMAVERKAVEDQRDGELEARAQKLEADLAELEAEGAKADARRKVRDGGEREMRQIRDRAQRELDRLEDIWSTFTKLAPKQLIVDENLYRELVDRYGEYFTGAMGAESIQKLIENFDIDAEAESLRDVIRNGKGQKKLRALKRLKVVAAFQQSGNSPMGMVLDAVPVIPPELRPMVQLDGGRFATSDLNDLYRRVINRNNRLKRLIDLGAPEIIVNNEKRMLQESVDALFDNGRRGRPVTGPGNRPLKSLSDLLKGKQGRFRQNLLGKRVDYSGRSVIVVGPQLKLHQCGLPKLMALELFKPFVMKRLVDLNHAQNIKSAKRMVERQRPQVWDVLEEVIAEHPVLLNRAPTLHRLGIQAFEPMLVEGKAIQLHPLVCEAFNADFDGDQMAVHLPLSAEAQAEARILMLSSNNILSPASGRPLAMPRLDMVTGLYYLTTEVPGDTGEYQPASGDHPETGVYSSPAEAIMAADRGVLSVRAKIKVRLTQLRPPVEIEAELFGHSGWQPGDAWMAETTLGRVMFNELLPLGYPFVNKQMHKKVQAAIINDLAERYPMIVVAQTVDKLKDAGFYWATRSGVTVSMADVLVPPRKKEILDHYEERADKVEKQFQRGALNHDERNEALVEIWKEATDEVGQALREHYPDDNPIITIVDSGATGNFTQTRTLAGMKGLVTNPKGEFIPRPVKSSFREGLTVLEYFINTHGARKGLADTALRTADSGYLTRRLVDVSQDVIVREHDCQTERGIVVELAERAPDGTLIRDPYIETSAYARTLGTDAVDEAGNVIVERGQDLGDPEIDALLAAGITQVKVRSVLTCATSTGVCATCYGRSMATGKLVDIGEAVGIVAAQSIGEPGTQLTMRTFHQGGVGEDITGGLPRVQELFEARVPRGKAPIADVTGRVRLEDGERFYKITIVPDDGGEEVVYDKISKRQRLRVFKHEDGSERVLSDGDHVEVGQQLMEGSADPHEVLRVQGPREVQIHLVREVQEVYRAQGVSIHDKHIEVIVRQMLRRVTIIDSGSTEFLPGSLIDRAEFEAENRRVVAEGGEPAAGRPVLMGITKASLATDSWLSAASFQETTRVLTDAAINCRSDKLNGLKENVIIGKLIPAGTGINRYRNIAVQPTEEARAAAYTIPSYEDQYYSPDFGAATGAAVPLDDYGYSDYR
Sequence of RNAP-SigA holoenzyme (P9WGI1 whole entry, chain 4 of 4): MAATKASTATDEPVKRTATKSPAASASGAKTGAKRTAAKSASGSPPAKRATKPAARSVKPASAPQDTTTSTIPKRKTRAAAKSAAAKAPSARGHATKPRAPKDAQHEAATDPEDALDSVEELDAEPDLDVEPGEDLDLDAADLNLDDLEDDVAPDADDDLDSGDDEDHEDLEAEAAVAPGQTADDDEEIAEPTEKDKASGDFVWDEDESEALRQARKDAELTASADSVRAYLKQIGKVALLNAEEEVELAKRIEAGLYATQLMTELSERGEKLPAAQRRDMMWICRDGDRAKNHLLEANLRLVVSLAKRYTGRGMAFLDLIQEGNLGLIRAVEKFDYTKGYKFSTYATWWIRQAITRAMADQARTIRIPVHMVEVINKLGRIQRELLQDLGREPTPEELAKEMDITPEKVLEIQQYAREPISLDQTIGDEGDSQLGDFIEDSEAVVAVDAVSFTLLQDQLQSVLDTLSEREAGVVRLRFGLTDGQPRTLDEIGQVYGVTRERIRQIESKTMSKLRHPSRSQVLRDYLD

B1: rrnAP3 promoter (dsDNA)
DNA 1: CTATGGATGACCGAACCTGGTCTTGACTCCATTGCCGGATTTGTATTAGACTGGCAGGGTCGCCCCGAAGCGGGCGGAAACAAGCAAGCGTGTTGTTTGAGAACTC
DNA 2: GAGTTCTCAAACAACACGCTTGCTTGTTTCCGCCCGCTTCGGGGCGACCCTGCCAGTCTAATACAAATCCGGCAATGGAGTCAAGACCAGGTTCGGTCATCCATAG
- binding result: binds
